Data taken from patent KR20230128271A (dated 2023).

Target: T1, human recombinant HER3 (coated on ELISA plate) (human, UniProt P21860 20-643)
T1 construct: also called 인간 재조합 HER3
Assay: ELISA; plate coated with human recombinant HER3; serial dilutions 0-100 μg/ml; goat anti-human IgG F(ab')2-HRP; absorbance at 450 nm

T1 sequence (P21860 20-643 limits assumed): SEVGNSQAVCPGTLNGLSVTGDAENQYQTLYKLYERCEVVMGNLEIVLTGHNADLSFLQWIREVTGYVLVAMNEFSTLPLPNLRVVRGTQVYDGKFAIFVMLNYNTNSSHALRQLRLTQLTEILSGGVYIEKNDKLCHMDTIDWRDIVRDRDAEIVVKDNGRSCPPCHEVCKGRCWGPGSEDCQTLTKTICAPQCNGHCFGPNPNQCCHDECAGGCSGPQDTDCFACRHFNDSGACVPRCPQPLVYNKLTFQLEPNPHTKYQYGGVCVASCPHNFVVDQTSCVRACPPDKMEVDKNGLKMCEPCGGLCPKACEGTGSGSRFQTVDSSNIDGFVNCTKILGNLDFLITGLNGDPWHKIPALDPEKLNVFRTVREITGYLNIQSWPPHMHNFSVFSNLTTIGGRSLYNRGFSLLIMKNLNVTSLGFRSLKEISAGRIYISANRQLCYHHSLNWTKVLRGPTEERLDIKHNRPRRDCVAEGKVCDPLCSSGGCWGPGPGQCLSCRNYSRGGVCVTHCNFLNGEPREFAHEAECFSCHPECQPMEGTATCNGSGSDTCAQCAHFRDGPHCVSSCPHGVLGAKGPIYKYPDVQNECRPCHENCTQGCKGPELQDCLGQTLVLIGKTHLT

B1: 225Ac-HER3-ARC (Ac225-labelled, DOTA-conjugated anti-HER3 monoclonal antibody, heavy chain SEQ ID NO: 77 and light chain SEQ ID NO: 78) (antibody, V domains shown)
VH: QVQLVESGGGLVKPGGSLRLSCAASGFTFSDYAMSWIRQAPGKGLEWVSTISDGGTYTYYPDSVKGRFTISRDNAKNSLYLQMNSLRAEDTAVYYCAREWGDYDGFDYWGQGTLVTVSS
VL: DIQMTQSPSSLSASVGDRVTITCRASQEISGYLSWYQQKPGKAPKRLIYAASTLDSGVPSRFSGSGSGTEFTLTISSLQPEDFATYYCLQYDSYPYTFGQGTKLEIKR
modifications: DOTA chelator conjugated with p-SCN-Bn-DOTA and chelating actinium-225; sites and chain not stated
notes: also called Ac225 표지된 DOTA-접합된 항-HER3 모노클로날 항체
- EC50: 1.7 ng/mL

B2: anti-HER3 IgG monoclonal antibody consisting of heavy chain SEQ ID NO: 77 and light chain SEQ ID NO: 78 (unmodified) (antibody, V domains shown)
VH: B1 VH
VL: B1 VL
notes: It was detected with goat anti-human IgG F(ab')2-HRP; also called 항-HER3; 비변형된 항-HER3 mAb
- EC50: 2.2 ng/mL
